Patent US20100279383A1
Where “and” joins values, the source holds several entries; their conditions need not be identical. Equal values may be shown once.

molecular target: anti-Savinase antibody; experiment: ELISA, anti-Savinase antibody binding of the variant against Savinase as reference

Substance	Antibody binding capacity shown as Delta-binding
Savinase variant R247E (from UniProt P29600 1-269) (enzyme)	2 fold
Savinase variant R170L + Q206E (from UniProt P29600 1-269) (enzyme)	2.1 fold
Savinase variant R170F (from UniProt P29600 1-269) (enzyme)	2.4 fold
Savinase variant Y167I + R170L + N218S (from UniProt P29600 1-269) (enzyme)	4.8 fold
Savinase variant D181N (from UniProt P29600 1-269) (enzyme)	2.9 fold
Savinase variant S57P + Y167F + R247Q (from UniProt P29600 1-269) (enzyme)	3 fold
Savinase variant R275E (from UniProt P29600 1-269) (enzyme)	2 fold
Savinase variant S57P + R170L (from UniProt P29600 1-269) (enzyme)	2.1 fold
Savinase variant N18D (from UniProt P29600 1-269) (enzyme)	2 fold
Savinase variant Y167I + R170L + A194P + N218S (from UniProt P29600 1-269) (enzyme)	3.2 fold
Savinase variant E136R + N140D (from UniProt P29600 1-269) (enzyme)	2.1 fold

Other lines, results leading:

Antibody binding capacity shown as Delta-binding	Substance
2 fold	Savinase variant R247H (from UniProt P29600 1-269) (enzyme)
2.1 fold and 2 fold	Savinase variant S57P + R170L + R247Q (from UniProt P29600 1-269) (enzyme)
2.8 fold	Savinase variant E136R (from UniProt P29600 1-269) (enzyme)
2 fold	Savinase variant R247K (from UniProt P29600 1-269) (enzyme)
3.8 fold	Savinase variant N140D + A172D (from UniProt P29600 1-269) (enzyme)
2 fold	Savinase variant R247Q (from UniProt P29600 1-269) (enzyme)
